Read-outs that look alike come from different tables or passages of the source.

This passage reports Average NCI-H929 IC50 [pM], cell kill, EC50 (nM), Fab-pHast internalisation into NCI-H929 and Fold-Change results from patent US20250152729A1.

The target in assay [1] is BCMA (TNFRSF17) on NCI-H929 cells (UniProt Q02223). In words: cell-based or functional assay.
For assay [2] the target is unchanged. Description: cell-based or functional assay. This is another data set of the same source.

Sequence of BCMA (TNFRSF17) on NCI-H929 cells (Q02223 whole entry): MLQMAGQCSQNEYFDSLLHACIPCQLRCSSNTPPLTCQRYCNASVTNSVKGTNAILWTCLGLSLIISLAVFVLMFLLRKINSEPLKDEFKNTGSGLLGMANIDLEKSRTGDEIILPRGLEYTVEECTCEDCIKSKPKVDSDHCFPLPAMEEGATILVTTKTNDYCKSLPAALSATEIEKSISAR

Turning to “J6M0 anti-BCMA human Alya IgG1 conjugated to McMMAF (antibody)”, in assay [1], the Average NCI-H929 IC50 [pM], cell kill amounted to 74.5 pM; the EC50 (nM), Fab-pHast internalisation into NCI-H929 was 11 nM; the Fold-Change at 6 hours (10 nM), Fab-pHast internalisation was found to be 37 fold. This substance had an Average NCI-H929 IC50 [pM], cell kill in assay [2] of 110 pM.
